Results published in patent publication US20150232507A1 (ERA BIOTECH S A, published 2015).

Columns and labels:
Experiment in all cases: cell-based or functional assay
[1] = molecular target: T1, G8^C: Gp41.8^C-[C-extein]linker-Trx-EFRSHHHHHH fusion protein
T1 chain: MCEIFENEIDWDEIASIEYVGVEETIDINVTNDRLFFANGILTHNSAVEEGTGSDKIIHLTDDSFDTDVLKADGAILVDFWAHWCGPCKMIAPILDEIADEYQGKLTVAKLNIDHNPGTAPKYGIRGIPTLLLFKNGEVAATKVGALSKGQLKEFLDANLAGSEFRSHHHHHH

[2] = molecular target: T1, G8^C: …
[3] = molecular target: T1, G8^C: …
[4] = molecular target: T2, I1^C: IMPDH1^C-[C-extein]linker-Trx-EFRSHHHHHH fusion protein
T2 chain: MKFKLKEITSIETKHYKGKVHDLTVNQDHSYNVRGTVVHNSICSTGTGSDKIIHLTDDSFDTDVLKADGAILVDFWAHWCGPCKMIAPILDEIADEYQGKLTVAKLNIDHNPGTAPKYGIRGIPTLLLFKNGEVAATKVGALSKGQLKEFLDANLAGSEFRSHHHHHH

[5] = molecular target: T2, I1^C: …
[6] = molecular target: T2, I1^C: …
[7] = molecular target: T3, N1^C: NrdJ1^C-[C-extein]linker-Trx-EFRSHHHHHH fusion protein
T3 chain: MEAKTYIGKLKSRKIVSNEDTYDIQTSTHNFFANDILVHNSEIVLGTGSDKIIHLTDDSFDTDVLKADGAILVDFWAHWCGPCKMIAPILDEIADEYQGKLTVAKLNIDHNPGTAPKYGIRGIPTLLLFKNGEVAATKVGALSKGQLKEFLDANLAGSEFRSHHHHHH

[8] = molecular target: T3, N1^C: …
[9] = molecular target: T3, N1^C: …
[10] = molecular target: T4, G1^C: Gp41.1^C-[C-extein]linker-Trx-EFRSHHHHHH fusion protein
T4 chain: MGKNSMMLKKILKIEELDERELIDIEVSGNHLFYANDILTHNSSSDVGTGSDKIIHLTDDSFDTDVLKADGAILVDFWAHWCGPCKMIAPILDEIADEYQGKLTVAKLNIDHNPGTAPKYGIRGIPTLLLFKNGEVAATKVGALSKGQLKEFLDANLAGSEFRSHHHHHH

[11] = molecular target: T4, G1^C: …
[12] = molecular target: T4, G1^C: …

B1: G8^N: StreptagII-gpD-linker[N-extein]-Gp41.8^N-GGHHHHHH fusion protein (other)
chain: MASWSHPQFEKASKETFTHYQPQGNSDPAHTATAPGGLSAKAPAMTPLMLDTSSRKLVAWDGTTDGAAVGILAVAADQTSTTLTFYKSGTFRYEDVLWPEAASDETKKRTAFAGTAISIVGSSQLNRCLSLDTMVVTNGKAIEIRDVKVGDWLESECGPVQVTEVLPIIKQPVFEIVLKSGKKIRVSANHKFPTKDGLKTINSGLKVGDFLRSRAKGGHHHHHH
splice product formation at 5 minutes, 25 °C [1]: ~90% | trans-splicing speed, fold faster than Npu DnaE, 25 °C [1]: 6 fold | trans-splicing first order rate constant k, 25 °C [2]: 0.017 s⁻¹ | trans-splicing t1/2, 25 °C [2]: 0.667 min

B2: G8^N(C1A): StreptagII-gpD-linker[N-extein]-Gp41.8^N(C1A)-GGHHHHHH fusion protein (other)
chain: MASWSHPQFEKASKETFTHYQPQGNSDPAHTATAPGGLSAKAPAMTPLMLDTSSRKLVAWDGTTDGAAVGILAVAADQTSTTLTFYKSGTFRYEDVLWPEAASDETKKRTAFAGTAISIVGSSQLNRALSLDTMVVTNGKAIEIRDVKVGDWLESECGPVQVTEVLPIIKQPVFEIVLKSGKKIRVSANHKFPTKDGLKTINSGLKVGDFLRSRAKGGHHHHHH
C-terminal cleavage k, 25 °C [3]: 9.5e-05 s⁻¹ | C-terminal cleavage t1/2, 25 °C [3]: 122 min

B3: I1^N: StreptagII-gpD-linker[N-extein]-IMPDH1^N-GGHHHHHH fusion protein (other)
chain: MASWSHPQFEKASKETFTHYQPQGNSDPAHTATAPGGLSAKAPAMTPLMLDTSSRKLVAWDGTTDGAAVGILAVAADQTSTTLTFYKSGTFRYEDVLWPEAASDETKKRTAFAGTAISIVGSGIGGGCFVPGTLVNTENGLKKIEEIKVGDKVFSHTGKLQEVVDTLIFDRDEEIISINGIDCTKNHEFYVIDKENANRVNEDNIHLFARWVHAEELDMKKHLLIELEGGHHHHHH
splice product formation at 5 minutes, 25 °C [4]: ~90% | trans-splicing speed, fold faster than Npu DnaE, 25 °C [4]: 7 fold | trans-splicing first order rate constant k, 25 °C [5]: 0.02 s⁻¹ | trans-splicing t1/2, 25 °C [5]: 0.567 min

B4: I1^N(C1A): StreptagII-gpD-linker[N-extein]-IMPDH1^N(C1A)-GGHHHHHH fusion protein (other)
chain: MASWSHPQFEKASKETFTHYQPQGNSDPAHTATAPGGLSAKAPAMTPLMLDTSSRKLVAWDGTTDGAAVGILAVAADQTSTTLTFYKSGTFRYEDVLWPEAASDETKKRTAFAGTAISIVGSGIGGGAFVPGTLVNTENGLKKIEEIKVGDKVFSHTGKLQEVVDTLIFDRDEEIISINGIDCTKNHEFYVIDKENANRVNEDNIHLFARWVHAEELDMKKHLLIELEGGHHHHHH
C-terminal cleavage k, 25 °C [6]: 0.000365 s⁻¹ | C-terminal cleavage t1/2, 25 °C [6]: 31.6 min

B5: N1^N: StreptagII-gpD-linker[N-extein]-NrdJ1^N-GGHHHHHH fusion protein (other)
chain: MASWSHPQFEKASKETFTHYQPQGNSDPAHTATAPGGLSAKAPAMTPLMLDTSSRKLVAWDGTTDGAAVGILAVAADQTSTTLTFYKSGTFRYEDVLWPEAASDETKKRTAFAGTAISIVGSGTNPCCLVGSSEIITRNYGKTTIKEVVEIFDNDKNIQVLAFNTHTDNIEWAPIKAAQLTRPNAELVELEINTLHGVKTIRCTPDHPVYTKNRDYVRADELTDDDELVVAIGGHHHHHH
splice product formation at 5 minutes, 25 °C [7]: ~90% | trans-splicing speed, fold faster than Npu DnaE, 25 °C [7]: 9 fold | trans-splicing first order rate constant k, 25 °C [8]: 0.062 s⁻¹ | trans-splicing t1/2, 25 °C [8]: 0.333 min

B6: N1^N(C1A): StreptagII-gpD-linker[N-extein]-NrdJ1^N(C1A)-GGHHHHHH fusion protein (other)
chain: MASWSHPQFEKASKETFTHYQPQGNSDPAHTATAPGGLSAKAPAMTPLMLDTSSRKLVAWDGTTDGAAVGILAVAADQTSTTLTFYKSGTFRYEDVLWPEAASDETKKRTAFAGTAISIVGSGTNPCALVGSSEIITRNYGKTTIKEVVEIFDNDKNIQVLAFNTHTDNIEWAPIKAAQLTRPNAELVELEINTLHGVKTIRCTPDHPVYTKNRDYVRADELTDDDELVVAIGGHHHHHH
C-terminal cleavage k, 25 °C [9]: 0.00027 s⁻¹ | C-terminal cleavage t1/2, 25 °C [9]: 43 min

B7: G1^N: StreptagII-gpD-linker[N-extein]-Gp41.1^N-GGHHHHHH fusion protein (other)
chain: MASWSHPQFEKASKETFTHYQPQGNSDPAHTATAPGGLSAKAPAMTPLMLDTSSRKLVAWDGTTDGAAVGILAVAADQTSTTLTFYKSGTFRYEDVLWPEAASDETKKRTAFAGTAISIVGSTRSGYCLDLKTQVQTPQGMKEISNIQVGDLVLSNTGYNEVLNVFPKSKKKSYKITLEDGKEIICSEEHLFPTQTGEMNISGGLKEGMCLYVKEGGHHHHHH
splice product formation at 5 minutes, 25 °C [10]: ~90% | trans-splicing activity in 4 M urea after 1 hour, relative to optimized conditions [10]: ~50% | trans-splicing activity, fold faster than Npu DnaE, 12 °C [10]: 6 fold | trans-splicing activity, fold faster than Npu DnaE, 25 °C [10]: 15 fold | trans-splicing activity, fold faster than Npu DnaE, 37 °C [10]: 10 fold | trans-splicing speed, fold faster than Npu DnaE, 25 °C [10]: 31 fold | trans-splicing first order rate constant k, 25 °C [11]: 0.057 s⁻¹ | trans-splicing t1/2, 25 °C [11]: 0.2 min

B8: G1^N(C1A): StreptagII-gpD-linker[N-extein]-Gp41.1^N(C1A)-GGHHHHHH fusion protein (other)
chain: MASWSHPQFEKASKETFTHYQPQGNSDPAHTATAPGGLSAKAPAMTPLMLDTSSRKLVAWDGTTDGAAVGILAVAADQTSTTLTFYKSGTFRYEDVLWPEAASDETKKRTAFAGTAISIVGSTRSGYALDLKTQVQTPQGMKEISNIQVGDLVLSNTGYNEVLNVFPKSKKKSYKITLEDGKEIICSEEHLFPTQTGEMNISGGLKEGMCLYVKEGGHHHHHH
C-terminal cleavage k, 25 °C [12]: 0.000595 s⁻¹ | C-terminal cleavage t1/2, 25 °C [12]: 19.4 min
